Reference: the RNAGym collection of RNA variant scans (doi:10.7554/elife.80360)

B1: HDV Ribozyme (parent)
chain: GGCCGGCAUGGUCCCAGCCUCCUCGCUGGCGCCGGCUGGGCAACAUUCCGAGGGGACCGUCCCCUCGGUAAUGGCGAAUGGGACCCA

Variants of: B1
Assay: self-cleavage, relative activity (ratio to wild type); higher = more cleavage; co-transcriptional

| Variant | self-cleavage |
| --- | --- |
| G76A G80A | 0.585 |
| G76A G80C | 0.0719 |
| C75A G82A | 0.151 |
| G74A A78C | 0.0811 |
| G74A A78G | 0.111 |
| G74A C75G | 0.17 |
| G74A C75A | 0.0528 |
| G73U G82C | 0.157 |
| G73U G82U | 0.224 |
| G73A C85U | 0.73 |
| G73A C85A | 0.882 |
| A77C G81U | 0.116 |
| A77C G81A | 0.173 |
| G73U G80A | 0.0839 |
| U72G G82A | 0.0978 |
| C75A A83C | 0.181 |
| C75A A83U | 0.151 |
| C75A A83G | 0.0567 |
| G73A G82A | 0.18 |
| G73A G82U | 0.151 |
| A77G C86U | 0.886 |
| G74A G80A | 0.182 |
| G74A G80C | 0.167 |
| G74A G80U | 0.124 |

| Variant | self-cleavage |
| --- | --- |
| G74U G80A | 0.0845 |
| G74U G80C | 0.164 |
| G74U C85A | 0.415 |
| G74C C84A | 0.177 |
| G73U A83C | 0.17 |
| U72G G81U | 0.178 |
| U72G G81A | 0.302 |
| G74U A78G | 0.185 |
| G76U G80A | 0.595 |
| G76U G80U | 0.407 |
| G76U G80C | 0.204 |
| G76C A77C | 0.104 |
| U79A G80A | 0.234 |
| U79A G80C | 0.204 |
| A78C C85U | 0.0923 |
| A78C C85A | 0.277 |
| G73U G76U | 0.212 |
| A78U G80U | 0.244 |
| A78U G80C | 0.174 |
| G74A A83C | 0.232 |
| G74A A83G | 0.205 |
| G73A A83U | 0.323 |
| G74U A83C | 0.271 |
| G74U A83G | 0.256 |

| Variant | self-cleavage |
| --- | --- |
| C75A G81A | 0.151 |
| G74U C84A | 0.475 |
| G76C G80C | 0.093 |
| G76C G80A | 0.394 |
| G74C A87G | 0.291 |
| G74C A87C | 0.212 |
| A78U G81U | 0.269 |
| G73A C75A | 0.246 |
| G73C C85A | 0.231 |
| G74C C86G | 0.201 |
| G74C C86U | 0.189 |
| G74C C86A | 0.201 |
| U79A A83G | 0.375 |
| G73U G74A | 0.172 |
| A77C C84G | 0.317 |
| C75A C86G | 0.0997 |
| C75U U79A | 0.151 |
| C75U U79G | 0.0594 |
| A77U C85A | 0.514 |
| G73U G81A | 0.178 |
| G73U G81C | 0.115 |
| A78G C86A | 0.727 |
| A78G C86U | 0.643 |
| A77U A83U | 0.0898 |

| Variant | self-cleavage |
| --- | --- |
| G76A A87G | 1.01 |
| G73C A83U | 0.348 |
| G73C A83G | 0.17 |
| G73C A83C | 0.264 |
| G76U G82C | 0.277 |
| G76U G82A | 0.343 |
| A78U C86G | 0.163 |
| A78U C86U | 0.309 |
| A78U C86A | 0.208 |
| A77U G81U | 0.237 |
| A77U G81A | 0.185 |
| C75G A78U | 0.0462 |
| C75G A78C | 0.151 |
| C75G A78G | 0.222 |
| C75A G80U | 0.118 |
| C75A G80C | 0.18 |
| C75A G80A | 0.12 |
| C75G C85A | 0.208 |
| C75G C85G | 0.0923 |
| G76C A87C | 1.08 |
| G74C G81A | 0.0875 |
| G74C G81C | 0.196 |
| A77G G80U | 0.244 |
| G73C A87U | 0.626 |

| Variant | self-cleavage |
| --- | --- |
| G73C C86A | 0.641 |
| G73U A77G | 0.306 |
| G73U A77C | 0.0898 |
| G76U U79G | 0.91 |
| G76U U79C | 0.782 |
| G76C C84A | 1.19 |
| G76C C84U | 1.04 |
| G74U C75U | 0.151 |
| C75G C84U | 0.0978 |
| C75G C84A | 0.259 |
| G76U A87U | 1.04 |
| G74C C75U | 0.108 |
| G74C C75A | 0.252 |
| G73U C86A | 0.543 |
| G73U C86U | 0.448 |
| A78U G82A | 0.109 |
| A77U G82A | 0.271 |
| A77U G82U | 0.0811 |
| G73A A87G | 0.697 |
| G73A A87U | 0.803 |
| G74C A77C | 0.133 |
| G76A C86G | 1.08 |
| G76A G81A | 0.332 |
| A78C G81A | 0.17 |

| Variant | self-cleavage |
| --- | --- |
| C75A A77U | 0.119 |
| C75A A77C | 0.237 |
| C75G C86A | 0.147 |
| C75G A83U | 0.201 |
| C75G A83C | 0.489 |
| G76U C85A | 1.05 |
| G76U C85U | 1.24 |
| G76U C85G | 1.16 |
| U79C A83U | 0.323 |
| U79C A83C | 0.374 |
| A78U A83U | 0.269 |
| A78U A83G | 0.285 |
| G73C A77U | 0.151 |
| G73C A77C | 0.287 |
| C75U | 0.19 |
| C75A | 0.171 |
| C75G | 0.159 |
| A78G C85A | 0.86 |
| A78G C85G | 0.539 |
| G73A C86U | 0.831 |
| G73A C86G | 0.609 |
| G73C U79G | 0.107 |
| G73C U79C | 0.161 |
| G74C U79A | 0.189 |

| Variant | self-cleavage |
| --- | --- |
| G74C U79C | 0.181 |
| G74C U79G | 0.302 |
| G73A C84U | 0.665 |
| G74C A78G | 0.113 |
| G73A G81A | 0.176 |
| G73U C85G | 0.437 |
| G73U C85A | 0.397 |
| G74C C85U | 0.128 |
| G74C C85A | 0.217 |
| A77G A87U | 0.851 |
| G74C G80C | 0.183 |
| C75U A87U | 0.185 |
| C75U A87C | 0.161 |
| G76C G81A | 0.499 |
| G76A A83G | 0.992 |
| G76A A83C | 0.539 |
| G74U G82U | 0.281 |
| G74U G82C | 0.0723 |
| A77C A87C | 0.391 |
| G76A A78C | 0.242 |
| G76A A78G | 0.816 |
| G76A A78U | 0.673 |
| G74A G81C | 0.218 |
